Results published in US10941182 (Amgen, dated 2021).
Starred links: 1 amine or outer side, 2 acyl side, 3 side chain; linkers in the order of their positions; H or OH if unused. Non-standard residues stand in square brackets, D forms with d. *: point of attachment. C18 diacid = O=C(O)CCCCCCCCCCCCCCCCC(=O)*; dBip = N[C@H](Cc1ccc(-c2ccccc2)cc1)C(=O)O; Oic = O=C(O)[C@@H]1C[C@@H]2CCCC[C@@H]2N1; Phe(4-Cl) = N[C@@H](Cc1ccc(Cl)cc1)C(=O)O; dPhe(4-Cl) = N[C@H](Cc1ccc(Cl)cc1)C(=O)O; Phe(4-I) = N[C@@H](Cc1ccc(I)cc1)C(=O)O; γGlu = O=C(O)[C@H](CCC(=O)[*:2])N[*:1]; NMeR = CN[C@@H](CCCNC(=N)N)C(=O)O; Tridecanoyl = CCCCCCCCCCCCC(=O)*; hArg = N=C(N)NCCCC[C@H](N)C(=O)O; dTic = O=C(O)[C@H]1Cc2ccccc2CN1; Cha = N[C@@H](CC1CCCCC1)C(=O)O; NMeL = CN[C@@H](CC(C)C)C(=O)O; Tle = CC(C)(C)[C@H](N)C(=O)O; Nle = CCCC[C@H](N)C(=O)O; Deg = CCC(N)(CC)C(=O)O; AEEA = NCCOCCOCC(=O)O; Aib = CC(C)(N)C(=O)O; BLeu = β-leucine

T1: human APJ receptor (human, UniProt P35414 1-380)
T1 sequence (looked up): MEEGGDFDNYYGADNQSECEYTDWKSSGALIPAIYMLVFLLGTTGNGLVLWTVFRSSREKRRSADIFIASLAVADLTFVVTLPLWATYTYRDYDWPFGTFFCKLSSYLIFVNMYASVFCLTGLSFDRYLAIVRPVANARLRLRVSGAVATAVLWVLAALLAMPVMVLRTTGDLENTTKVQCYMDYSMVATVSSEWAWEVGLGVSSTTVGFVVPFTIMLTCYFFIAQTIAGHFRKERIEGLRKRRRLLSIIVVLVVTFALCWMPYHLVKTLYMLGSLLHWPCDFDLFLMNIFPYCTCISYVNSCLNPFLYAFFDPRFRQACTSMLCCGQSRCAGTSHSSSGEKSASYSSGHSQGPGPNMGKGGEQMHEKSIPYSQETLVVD

T2: rat APJ receptor (rat, UniProt Q9JHG3 1-377)
T2 sequence (looked up): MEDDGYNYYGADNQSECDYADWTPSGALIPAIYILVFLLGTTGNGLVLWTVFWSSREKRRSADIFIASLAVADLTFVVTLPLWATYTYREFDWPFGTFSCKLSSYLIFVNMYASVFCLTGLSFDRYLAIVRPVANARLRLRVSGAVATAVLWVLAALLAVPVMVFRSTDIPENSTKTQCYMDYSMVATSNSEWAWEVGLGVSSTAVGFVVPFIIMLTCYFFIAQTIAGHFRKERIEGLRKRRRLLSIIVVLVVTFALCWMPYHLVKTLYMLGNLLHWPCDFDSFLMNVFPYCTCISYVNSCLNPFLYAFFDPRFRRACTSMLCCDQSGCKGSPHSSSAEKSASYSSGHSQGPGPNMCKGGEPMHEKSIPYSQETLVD

B1: apelin polypeptide SEQ ID NO: 265 (peptide)
peptide: Tridecanoyl-[γGlu][AEEA][AEEA][dQ][hArg]P[dR][Cha]SHKG[Oic][Nle]P[dPhe(4-Cl)]-OH
SMILES: CCCCCCCCCCCCC(=O)N[C@@H](CCC(=O)NCCOCCOCC(=O)NCCOCCOCC(=O)N[C@H](CCC(N)=O)C(=O)N[C@@H](CCCCNC(=N)N)C(=O)N1CCC[C@H]1C(=O)N[C@H](CCCNC(=N)N)C(=O)N[C@@H](CC1CCCCC1)C(=O)N[C@@H](CO)C(=O)N[C@@H](Cc1c[nH]cn1)C(=O)N[C@@H](CCCCN)C(=O)NCC(=O)N1[C@H](C(=O)N[C@@H](CCCC)C(=O)N2CCC[C@H]2C(=O)N[C@H](Cc2ccc(Cl)cc2)C(=O)O)C[C@@H]2CCCC[C@@H]21)C(=O)O
B2: apelin polypeptide SEQ ID NO: 264 (peptide)
peptide: {C18 diacid}-[γGlu][AEEA][AEEA][hArg][dR]Q[hArg]P[dR][NMeL]SHKG[Oic][Phe(4-I)]P[dBip]-OH
SMILES: CC(C)C[C@@H](C(=O)N[C@@H](CO)C(=O)N[C@@H](Cc1c[nH]cn1)C(=O)N[C@@H](CCCCN)C(=O)NCC(=O)N1[C@H](C(=O)N[C@@H](Cc2ccc(I)cc2)C(=O)N2CCC[C@H]2C(=O)N[C@H](Cc2ccc(-c3ccccc3)cc2)C(=O)O)C[C@@H]2CCCC[C@@H]21)N(C)C(=O)[C@@H](CCCNC(=N)N)NC(=O)[C@@H]1CCCN1C(=O)[C@H](CCCCNC(=N)N)NC(=O)[C@H](CCC(N)=O)NC(=O)[C@@H](CCCNC(=N)N)NC(=O)[C@H](CCCCNC(=N)N)NC(=O)COCCOCCNC(=O)COCCOCCNC(=O)CC[C@H](NC(=O)CCCCCCCCCCCCCCCCC(=O)O)C(=O)O
B3: apelin polypeptide SEQ ID NO: 270 (peptide)
peptide: Tridecanoyl-[γGlu][AEEA][AEEA][dQ][hArg]P[dR][Cha]SHKG[Oic][Nle][Aib][Phe(4-Cl)]-OH
SMILES: CCCCCCCCCCCCC(=O)N[C@@H](CCC(=O)NCCOCCOCC(=O)NCCOCCOCC(=O)N[C@H](CCC(N)=O)C(=O)N[C@@H](CCCCNC(=N)N)C(=O)N1CCC[C@H]1C(=O)N[C@H](CCCNC(=N)N)C(=O)N[C@@H](CC1CCCCC1)C(=O)N[C@@H](CO)C(=O)N[C@@H](Cc1c[nH]cn1)C(=O)N[C@@H](CCCCN)C(=O)NCC(=O)N1[C@H](C(=O)N[C@@H](CCCC)C(=O)NC(C)(C)C(=O)N[C@@H](Cc2ccc(Cl)cc2)C(=O)O)C[C@@H]2CCCC[C@@H]21)C(=O)O
B4: apelin polypeptide SEQ ID NO: 271 (peptide)
peptide: Tridecanoyl-[γGlu][AEEA][AEEA][dQ][hArg]P[dR][Cha]SHKG[Oic][Nle][Deg][Phe(4-Cl)]-OH
SMILES: CCCCCCCCCCCCC(=O)N[C@@H](CCC(=O)NCCOCCOCC(=O)NCCOCCOCC(=O)N[C@H](CCC(N)=O)C(=O)N[C@@H](CCCCNC(=N)N)C(=O)N1CCC[C@H]1C(=O)N[C@H](CCCNC(=N)N)C(=O)N[C@@H](CC1CCCCC1)C(=O)N[C@@H](CO)C(=O)N[C@@H](Cc1c[nH]cn1)C(=O)N[C@@H](CCCCN)C(=O)NCC(=O)N1[C@H](C(=O)N[C@@H](CCCC)C(=O)NC(CC)(CC)C(=O)N[C@@H](Cc2ccc(Cl)cc2)C(=O)O)C[C@@H]2CCCC[C@@H]21)C(=O)O
B5: apelin polypeptide SEQ ID NO: 277 (peptide)
peptide: Tridecanoyl-[γGlu][AEEA][AEEA][dL][hArg]P[dR][Cha]SHKG[Oic][Nle]P[Phe(4-Cl)]-OH
SMILES: CCCCCCCCCCCCC(=O)N[C@@H](CCC(=O)NCCOCCOCC(=O)NCCOCCOCC(=O)N[C@H](CC(C)C)C(=O)N[C@@H](CCCCNC(=N)N)C(=O)N1CCC[C@H]1C(=O)N[C@H](CCCNC(=N)N)C(=O)N[C@@H](CC1CCCCC1)C(=O)N[C@@H](CO)C(=O)N[C@@H](Cc1c[nH]cn1)C(=O)N[C@@H](CCCCN)C(=O)NCC(=O)N1[C@H](C(=O)N[C@@H](CCCC)C(=O)N2CCC[C@H]2C(=O)N[C@@H](Cc2ccc(Cl)cc2)C(=O)O)C[C@@H]2CCCC[C@@H]21)C(=O)O
B6: apelin polypeptide SEQ ID NO: 269 (peptide)
peptide: Tridecanoyl-[γGlu][AEEA][AEEA][dQ][hArg]P[dR][Cha]SHKG[Oic][Nle]P[dTic]-OH
SMILES: CCCCCCCCCCCCC(=O)N[C@@H](CCC(=O)NCCOCCOCC(=O)NCCOCCOCC(=O)N[C@H](CCC(N)=O)C(=O)N[C@@H](CCCCNC(=N)N)C(=O)N1CCC[C@H]1C(=O)N[C@H](CCCNC(=N)N)C(=O)N[C@@H](CC1CCCCC1)C(=O)N[C@@H](CO)C(=O)N[C@@H](Cc1c[nH]cn1)C(=O)N[C@@H](CCCCN)C(=O)NCC(=O)N1[C@H](C(=O)N[C@@H](CCCC)C(=O)N2CCC[C@H]2C(=O)N2Cc3ccccc3C[C@@H]2C(=O)O)C[C@@H]2CCCC[C@@H]21)C(=O)O
B7: apelin polypeptide SEQ ID NO: 266 (peptide)
peptide: Tridecanoyl-[γGlu][AEEA][AEEA]Q[dR]P[dR][Cha]SHKG[Oic][Nle]P[dPhe(4-Cl)]-OH
SMILES: CCCCCCCCCCCCC(=O)N[C@@H](CCC(=O)NCCOCCOCC(=O)NCCOCCOCC(=O)N[C@@H](CCC(N)=O)C(=O)N[C@H](CCCNC(=N)N)C(=O)N1CCC[C@H]1C(=O)N[C@H](CCCNC(=N)N)C(=O)N[C@@H](CC1CCCCC1)C(=O)N[C@@H](CO)C(=O)N[C@@H](Cc1c[nH]cn1)C(=O)N[C@@H](CCCCN)C(=O)NCC(=O)N1[C@H](C(=O)N[C@@H](CCCC)C(=O)N2CCC[C@H]2C(=O)N[C@H](Cc2ccc(Cl)cc2)C(=O)O)C[C@@H]2CCCC[C@@H]21)C(=O)O
B8: apelin polypeptide SEQ ID NO: 267 (peptide)
peptide: Tridecanoyl-[γGlu][AEEA][AEEA]Q[dR]P[NMeR][Cha]SHKG[Oic][Nle]P[Phe(4-Cl)]-OH
SMILES: CCCCCCCCCCCCC(=O)N[C@@H](CCC(=O)NCCOCCOCC(=O)NCCOCCOCC(=O)N[C@@H](CCC(N)=O)C(=O)N[C@H](CCCNC(=N)N)C(=O)N1CCC[C@H]1C(=O)N(C)[C@@H](CCCNC(=N)N)C(=O)N[C@@H](CC1CCCCC1)C(=O)N[C@@H](CO)C(=O)N[C@@H](Cc1c[nH]cn1)C(=O)N[C@@H](CCCCN)C(=O)NCC(=O)N1[C@H](C(=O)N[C@@H](CCCC)C(=O)N2CCC[C@H]2C(=O)N[C@@H](Cc2ccc(Cl)cc2)C(=O)O)C[C@@H]2CCCC[C@@H]21)C(=O)O
B9: apelin polypeptide SEQ ID NO: 272 (peptide)
peptide: Tridecanoyl-[γGlu][AEEA][AEEA][dQ][hArg]P[dR][Cha]SHKG[Oic][Tle]P[Phe(4-Cl)]-OH
SMILES: CCCCCCCCCCCCC(=O)N[C@@H](CCC(=O)NCCOCCOCC(=O)NCCOCCOCC(=O)N[C@H](CCC(N)=O)C(=O)N[C@@H](CCCCNC(=N)N)C(=O)N1CCC[C@H]1C(=O)N[C@H](CCCNC(=N)N)C(=O)N[C@@H](CC1CCCCC1)C(=O)N[C@@H](CO)C(=O)N[C@@H](Cc1c[nH]cn1)C(=O)N[C@@H](CCCCN)C(=O)NCC(=O)N1[C@H](C(=O)N[C@H](C(=O)N2CCC[C@H]2C(=O)N[C@@H](Cc2ccc(Cl)cc2)C(=O)O)C(C)(C)C)C[C@@H]2CCCC[C@@H]21)C(=O)O
B10: apelin polypeptide SEQ ID NO: 273 (peptide)
peptide: Tridecanoyl-[γGlu][AEEA][AEEA][dQ][hArg]P[dR][Cha]S[Aib]KG[Oic][Nle]P[Phe(4-Cl)]-OH
SMILES: CCCCCCCCCCCCC(=O)N[C@@H](CCC(=O)NCCOCCOCC(=O)NCCOCCOCC(=O)N[C@H](CCC(N)=O)C(=O)N[C@@H](CCCCNC(=N)N)C(=O)N1CCC[C@H]1C(=O)N[C@H](CCCNC(=N)N)C(=O)N[C@@H](CC1CCCCC1)C(=O)N[C@@H](CO)C(=O)NC(C)(C)C(=O)N[C@@H](CCCCN)C(=O)NCC(=O)N1[C@H](C(=O)N[C@@H](CCCC)C(=O)N2CCC[C@H]2C(=O)N[C@@H](Cc2ccc(Cl)cc2)C(=O)O)C[C@@H]2CCCC[C@@H]21)C(=O)O

Tests used:
[1] = biological target: T1, human APJ receptor; experiment: cell-based or functional assay
[2] = biological target: T2, rat APJ receptor; experiment: cell-based or functional assay

Binder	EC50 Human APJ Receptor [1] [µM]	EC50 Rat APJ Receptor [2] [µM]
B1	0.0012	0.0145
B2	0.145	0.193
B3	0.00176	0.00149
Tridecanoyl-[γGlu][AEEA][AEEA][dQ][hArg]P[dR][BLeu]SHKG[Oic][Nle]P[Phe(4-Cl)]-OH [apelin polypeptide SEQ ID NO: 274]	0.00805	0.0462
B4	0.0118	0.00788
Ac-[hArg][hArg]Q[dR]P[dR][NMeL]SHKG[Oic][Phe(4-I)]P[dBip]-OH [apelin polypeptide SEQ ID NO: 20]	0.000189	0.000706
B5	0.0161	0.0209
B6	0.073	0.0523
B7	0.00581	0.0333
Tridecanoyl-[γGlu][AEEA][AEEA][dQ][hArg]P[NMeR][BLeu]SHKG[Oic][Nle]P[Phe(4-Cl)]-OH [apelin polypeptide SEQ ID NO: 275]	0.00343	0.0193
B8	0.000753	0.0176
B9	0.0168	0.0115
B10	0.00167	0.00509
